In patent US6897054:

Target: huCdc7 fused to DNA-binding domain of Gal4 (human)
Experiment: yeast two-hybrid assay, lacZ activity

- interaction relative to the full-length clone: 10%
Substance: H37 deletion derivative ΔP2 fused to Gal4 activation domain (from UniProt Q9UBU7 1-431)
